Source: US20150140683A1

Columns and labels:
[1] = biological target: antibody captured on the human Fab capture surface (unnamed IgG); test: SPR (BIAcore), antibody captured via human Fab capture kit, 50 nM fusion polypeptide injected, 25 C
[2] = biological target: antibody captured on the human Fab capture surface (unnamed IgG); test: SPR (BIAcore), antibody captured via human Fab capture kit, 50 nM receptor injected, 25 C

response units [1] [RU] | response units [2] [RU] | Substance
> 100 |  | FcgammaRIIIaV158-Avi-IgA Protease-Fc LALA P329G fusion polypeptide (Fc fusion)
 | 40 | FcgammaRIIIaV158 (intact HisAvi-tag comprising functional variant of FcgRIIIa) (receptor)
